# Reference: the nanobody polyreactivity screen of Harvey et al. (2022)
# Assay: yeast display, Sf9 membrane polyspecificity reagent, FACS + sequencing; frameworks hold sequencing errors
# In short: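 In a synthetic yeast display library (Saccharomyces cerevisiae BJ5465), nanobody expression was induced with galactose for 36–48 hours. FACS gates were set low and high (top ~1%) using anti-HA fluorescence for expression and streptavidin fluorescence for binding of the Sf9 membrane reagent. Each polyreactivity label is drawn from the gate of origin.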
sequence,measurement,value
QVQLVESGGGLVQAGGSLRLSCAACGRIFDRNAMGWYRQAPGKERELVAAITRSGGRTYYADSVKGRFTISRDNAKNSVYLQMNSLKPEDTAVYYCNRGYPRSVVHYNSWGQGTQVTVSS,polyreactivity (PSR sort gate),low polyreactivity
QVQLVESGGGLVQAGGSLRLSCAASGFTFFYNDMGSYRQAPGKERELVAAINLSGGTTYYADSVKGRFTISRDNAKNTVYLQMNSLIPEDTAVYYCNRASSTPWYRWRYKPFDYWGQGTQVTVSS,polyreactivity (PSR sort gate),high polyreactivity
QVQLVESGGGLVQAGGSLRLSCAASGRTFYYYAMGWYRQAPGKERELVAAINSGGTTSYADSVKGRFTISRDNAKNTVYFQMNSLKPEDTAVYYCAASDYGFPEYLTAYFYWGQGTLVTVSS,polyreactivity (PSR sort gate),low polyreactivity
QVQLVESGGGLVQAGGSLRLTCAASGRIFGWYAMGWYRQAPGKEREFVAAITVTGGSTYYADSVKGRFTISRDNAKNTVYLQMNSLKPEDTAVYYCAADRWYTRTGFDYWGQGTQVTVSS,polyreactivity (PSR sort gate),low polyreactivity
QVQLVESGGGLVQAGGSLRLSCAASGSTFPLYAMGWYRQAPGKERELVAAITWSGANTYYADSVKGRFTISRDNAKNTVYLQMNSLKPEDTAVYYCAALYYWDQPQLEFSYWGQGTQVTVSS,polyreactivity (PSR sort gate),low polyreactivity
QLQLVESGGGLVQAGGSLRLSCAASGRNFGYNAMGWYRPAPGKERELVAVINIDGSTNYADSVKGRFTISRDNAKNTVYLQLNSLNPEDTAVYYCAARYWKSYRNGGFFGFTYYYWGQGTQVTVSS,polyreactivity (PSR sort gate),high polyreactivity
QVQLVESGGGLVQAGGSLRLSCAASGSIFDYNAMGWYRQAPGKERELVASIRWSGGRTYYADSVKGRFTISRDNAKNTVYLQMNSLKPEDTAVYYCNRKPQEYVLQGSSNGYDYWGQGTQVTVSS,polyreactivity (PSR sort gate),low polyreactivity
QVQLVESGGGLVQAGGSLRLSCAASGSIFYRYALGWYRQAPGKERELVAALSYSGGSTYYADSVKGRFTISRDNAKNTVYLQMNSLKPQETAVYYCANDSPPPISDYSRYYGYGYWGQGTQVTVSS,polyreactivity (PSR sort gate),low polyreactivity
QFQLVESGGGLVQAGGSLRLSCAASGFTFSHNTMGWYIQSPGKEREFVARISGRGVSTSYADSVKGRFTISRDNAKNTVYLQMNCLKPEDTAVYYCNRRVAYLSGYSYDYWGQGTQVTVSS,polyreactivity (PSR sort gate),high polyreactivity
QVQLVESGGGLVQAGGSLRLSCAASGFTFDRYAMGWYRQAPGKERELVAAISVSGGRTYYADSVKGRFTISRDNAKNTVYLQMNSLKPEDTAVYYCAARDHSRSRFGYDYLGQGTQVTVSS,polyreactivity (PSR sort gate),high polyreactivity
QVHLVESGGGLVQAGGSLRLSCSASGSIFRLNAMGWYRQAPGKERELVAAITWSDSSTYYADSVKGRFTISRDNAKNTVYLQMNSLKPVDTAVYYCAADPQSYKYDYWGQGTQVTVSS,polyreactivity (PSR sort gate),low polyreactivity
QVQLVESGGGLVQAGGSLRLSCAASGRTFDPYAMGWYRQAPGKERELVAAITSGDDTYYADSVKGRFTISRDNAKNTVYLQMNSLKPEDTAVYYCAADSFTPDYYSHDYWGQGTQVTVSS,polyreactivity (PSR sort gate),low polyreactivity
QVQLVESGGGLVQEGGSLRLSWAASGITFGGYAMGWYRQAPGKERELVAAISRGGGSTNYADSVKGRFTISLDNANNTVYLQMNSLKPEDTAVYYCNARRQNSRYDYWGQGTQVTVST,polyreactivity (PSR sort gate),low polyreactivity
QVQLVESGGGLVQAGGSLRLSCAASGSIFGYNVMGWYRQAPGKEREFVAAITYRGGGTYADSVKGRFTISRDNAKNTVYLQMNSLKPEDTAVYYCAARWYGWRSRRYDYWGQGTQVTVSS,polyreactivity (PSR sort gate),high polyreactivity
QVQLLESGGGLVQAGGSLRLSCAASGRTFRYYTMGWYRQAPGKEREFVDAISSTGGTYYADSVKGRFTISRDNAKNTVYLQMNCLKPEDTAVYYCAATFIQVVVNVQLYDYDYWGQGTQVTVSS,polyreactivity (PSR sort gate),low polyreactivity
QVQLVESGGGLVEAGGSLRLTCAAYGSIFSAYAMGWYRAAPGKERELVAAITRGTSTNYADSVKGRFTISRDNAKNTVYLQMNSLKPEDTAVYYCAVGYNSKLAVGMYYWGLGTQVTVSS,polyreactivity (PSR sort gate),low polyreactivity
QVQLVESGGGLVQAGGSLRLSCAASGRIFYRYAMGWYRQAPGKERELVAAIRYSGGRTYYADSVKGRFTISRDNAKNTVYLQMNSLKPEDTAVYYCAARGWYKSDYWGQGTQVTVSS,polyreactivity (PSR sort gate),low polyreactivity
QVQLVESVVGLVQAGGILRLSCSASGSTLPWYAMGWYRQAPGKERELVAAISYRGGSTYYADSVKGRFTISRDNAKNTVYLQLNSLKPEDTAVYYCAARFYFQPLWYKGYYWGQGTQVTVSS,polyreactivity (PSR sort gate),high polyreactivity
QFQLVESGGGLVQAGGSLRLSCAASGSTFNYNAMGWYRQAPGKERELVAAISSSGGSTYYADSVKGRITISRDNAKNTVYLQMNSLKPEDTAVYSCATGGSSRVRTEGDYWGQGTQVTVSS,polyreactivity (PSR sort gate),low polyreactivity
QVQLVDSGGGLVQAGGSLRLSCAASGSIFYWYAMGWYRQAPGKERELVAAISWSGGSTFYADSVKGRFTISRDNAKNTVYLQMNSLKPEDTAVYYCAAETPYDYDYWGQGTQVTVSS,polyreactivity (PSR sort gate),high polyreactivity
QVQLVESAGGLVQAGGCLRLSCAACGSIFLYNAMGWYRQAPVKERELVAGITGGGGTNYADSVKGRFTISRDNAKNTVYLQMNSLKPEDTAVYYCAADPSGQFPYSYYNYDYDYWGQGTQVTVSS,polyreactivity (PSR sort gate),low polyreactivity
QVQLEESGGGLVQAGGSLRLSCAATGFIFRGYAMGWYRPAPGKERELVAAITSSGGDTYYADSVKGRFTISRDNAKNTVYLQMNSLKPEDTAVYYCNARDYASGTEGDYWGQGTQVTVSS,polyreactivity (PSR sort gate),low polyreactivity
QDQLVESGGGLVQAGGSLRLSCAAYGSIFYVYAMGWYRQAPGKERELVAAIRRTGSSTYYADSVKGRFTISRDNAKNTVSLQMNSLKPEDTAVYYCAASYWRARAGSYDYWGQGTQVTVSS,polyreactivity (PSR sort gate),high polyreactivity
QVQLVESGGGLVQAGGTLRLSCAASGITFEHYAMGWYRQAPGKERELVAAINRSGDNTYYADSVKGRFTISRYNAKNTFYLQMNSLKPEDTAVYYCNTVELYWRGYDYWGQGTQVTVSS,polyreactivity (PSR sort gate),high polyreactivity
QVQLVESGGGLVQAGGSLRLSCAASGRIFYYYAMGWYRQAPGKERELVATISRAGITNYADSVKGRFTISRDNAKNTVYLQMNSLKPEDTAVYYCADTFYPWRYNYEYWGQGTQVTVSS,polyreactivity (PSR sort gate),high polyreactivity
QVQLVESGGGLVKAGGSLRLICAAYGRIFALYAMGWYRHAPGKERELVAAINNGASTNYADSVKWRFTISRDNAKNTVYVQMNSLKPEDTAVYYCAVRAARSGQRFYSWGQGTQVTVSS,polyreactivity (PSR sort gate),high polyreactivity
QVQLVESGGGLVQAGGSLRLSCAASGRIFYDYAMGWYRQAPGKERELVAAISGSGGSTYYADSVKGRFTISRDNAKNTVYLQMNSLKPEDTAVYYCNRYTTRYYPGGDYWGQGTQVTVSS,polyreactivity (PSR sort gate),high polyreactivity
QVQLVESGGGLVQAGGSLRLSCAASGRTFRRNAMAWYRKAPGKERELVAAISGGGSTNYADSVKGRFTISRDNAKNTVYLQMNSLKPEDTAVYYCNKRGTIWSGFWGQGTQVTVSS,polyreactivity (PSR sort gate),high polyreactivity
QVQLVESGGGLVQAGGSLRLSCAASGSIFGSYAMGWYRQAPGKEREFVAGIDQSGSSTYYADSVKGRFTISRDNAKNTVYLQMNSLKPEDTAVYYCNAVWYFYSTYRKYYYWGQGTQVTVSS,polyreactivity (PSR sort gate),high polyreactivity
QVQLVESGGGLVQAGGSLRLSCAASGFTFPTYAMGWYRQAPGKERELVAAISTSGARTYYADSVKGRFTISRDNAKNTVYLQMNSLKPEDTAVYYCAAVFKAGSAYDYWGQGTQVTVSS,polyreactivity (PSR sort gate),high polyreactivity
QVQLVESGGGLVQAGGSLRLSCAASGRIFYYYPMGWYRQAPGKEMELVARITGLTGRTYYADSVKGRFTISRDNSKNTVYLHMHSLKPQDTAVYYCAATDRWSRLGYWGQGTQVTVSS,polyreactivity (PSR sort gate),high polyreactivity
QVQLVESGGGIVQAGGSLRLSCSASGSIFPLDGMGSYRQAPGKERELVAAISIGGRTNYADSVKGRFTISRDNAKNTVYLQMTSLKPEDTAVYYCNAVSKFVYRNRILWYDYWGQGTQVTVSS,polyreactivity (PSR sort gate),high polyreactivity
QVQLVESGGGLVQAGRSLRLSCAASGFIFRWYAMGWYRQAPGKERELVAGLTSGDNTYYADSVKGRFTISRDNAKNTVYLQMNSLKPEDTAVSYCAADGWLWSFTGDGWWFDYWGQGTQVTVSS,polyreactivity (PSR sort gate),low polyreactivity
QVQLVESGGGLVQAGGSLRLSCAASGSTFYKYAMGGYRQAPGKERELVASITSGGRTYYADSEKGRFTISRDNAKNTVYLQMNSLKPDDTAVYYCAKRYGRLTRYDYWGQGTQVTVSS,polyreactivity (PSR sort gate),high polyreactivity
QGQLVESGGGLVQAGGSLRLSCAASGSTFANYDMAWYRQAPGKERELVAAITSRGGSTYYADSVKGRFTISRDNAKNTVYLQMNSLKPEDTAVYYCAAVTRNQGSFRYYFWGQGTQVTVSS,polyreactivity (PSR sort gate),high polyreactivity
QDQLVESWVGLVQAGGSLRLSCAASGTISSYAMGWSRQAPGKERELVASIRYRGGSTYYADSVKGRFTISRDNEKNTVYLQINSLKPEDTAVYYCNAVRVPYVRGAKFEYWGQGTQVTVSS,polyreactivity (PSR sort gate),low polyreactivity
QVQLVESGGGLVQAGRSLRLSCAASGLTFSAYAMGWYRQAPGKEREFVAAITDSDGSTYYADSVKGRFTITRDNAKNTVYLQMNSLKPEDTAVYYCAASGSWYYGNWSGGYDYWGQGTQVTVSS,polyreactivity (PSR sort gate),low polyreactivity
QVQLVESGGGLVQAGGSLRLSCAASGRIFVQYAMGWYRQAPGKERELVAAISGSGGRTYYADSVKGRFTISRDNAKNTVYLQMNSLKPEDTAVYYCNTARLHGQTQGGDYWGQGTQVTVSS,polyreactivity (PSR sort gate),high polyreactivity
QVQLVESGGGLVQAGGSLRLSCAASGGTFSCYAMGWYRQAPGKERELVAAITRRGGRTYYADSVKGRFTISRDNAKNTVYLQMNSLKPEDTAVYYCNTDYKFDYVGFSTWVVRYDYWGQGTQVTVSS,polyreactivity (PSR sort gate),low polyreactivity
QVQLVESGGGLVQAGGSLRLSCAASGSTFAIYGMGWYRQAPGKERELVAGITRGGSTNYADSVKGRFTISRDNAKNTVYLQMNSLKPEDTAVYYCNKVQRSTYYNGYDYWGQGTQVTVSS,polyreactivity (PSR sort gate),high polyreactivity
QVQLVESGGGLVQAGGSLRLSCAASGRTFGNYAMGWYRQAPGTERELVASITYTVGNTYYADSVKGRFTISRDNAKNTVYIQMNSLKPEDTAVYYCAADGFYLQFYHYDYWGQGTQVTVSS,polyreactivity (PSR sort gate),low polyreactivity
QVQLVESGGGLVQAGGSLRLSCAASGRTFLYYAMGWYRQAPGKERELVAAIRRGSSTYYADSVKGRFTISRDNAKNTVYLQMNSLKPEDTAVYYCAARGRYRIGPGRYGKRYDYWGQGTQVTVSS,polyreactivity (PSR sort gate),high polyreactivity
QVQLVESGGGLVQAGGSLRLSCAASGSNSRYAMGWYRHARGKERELVRAITRSGGSTHYADSVKGRFTISRDNAMNTVYLQMNSLKPEDTAVYYCATRYYRGVIRYPYDSWGQGTQVTLSS,polyreactivity (PSR sort gate),high polyreactivity
